These results are taken from US20160074468A1 (GENUS ONCOLOGY, published 2016).

The target in experiment [1] is T1, HER2/ERBB2 receptor tyrosine kinase (human, UniProt P04626 23-1255).
T1 construct: whole, on cells; Endogenous HER2 in cell lysates, detected by anti-HER2 immunoblot of precipitates or GST adsorbates; also called Neu; CD340
Kind of experiment: co-immunoprecipitation: anti-MUC1-C precipitates of SKBR3 and BT474 lysates, immunoblot (FIG. 1B). From the text: (FIG. 1C). […] Lysates were immunoblotted with the indicated antibodies. […] IP, immunoprecipitated.
Background: Immunoblotting shows a protein as a band on a membrane.

Experiment [2] addresses T1, HER2/ERBB2 receptor tyrosine kinase. Put plainly: GST pull-down from SKBR3 cell lysates, anti-HER2 immunoblot (FIG. 2A, left). The method, then: Lysates from SKBR3 (left) and BT474 (right) cells were incubated with the indicated GST or GST-fusion proteins. The adsorbates were immunoblotted (IB) with anti-HER2. Input of the GST proteins was assessed by Coomassie blue staining. […] Lysates were immunoblotted with the indicated antibodies. […] Lysates were immunoblotted with the indicated antibodies. […] Cell number (mean±s.e. of three determinations) was determined by Trypan blue staining. IP, immunoprecipitated.

B1: MUC1 C-terminal subunit (MUC1-C) (other)
chain: GSVVVQLTLAFREGTINVHDVETQFNQYKTEAASRYNLTISDVSVSDVPFPFSAQSGAGVPGWGIALLVLVCVLVALAIVYLIALAVCQCRRKNYGQLDIFPARDTYHPMSEYPTYHTHGRYVPPSSTDRSPYEKVSAGNGGSSLSYTNPAVAATSANL
notes: Endogenous MUC1-C in lysates of SKBR3, BT474, SKBR3R and BT474R human breast cancer cells, precipitated with anti-MUC1-C
For the molecule B1, in experiment [1], the binding result was “binds”.

B2: GST-MUC1-CD in which the CQC motif had been mutated to AQA (other, not shown: a dimerising Fc or GST; large carriers; small tags and cut ends)
chain: AQARRKNYGQLDIFPARDTYHPMSEYPTYHTHGRYVPPSSTDRSPYEKVSAGNGGSSLSYTNPAVAATSANL
notes: also called MUC1-CD(AQA)
For the molecule B2, in experiment [2], the binding result was “no binding”.
